Source: patent US20090291890A1 (published 2009)
Values joined by “and” are separate entries in the source; they are usually repeats but may differ in a detail not shown here. Equal values may be shown once.

Columns and labels:
wild-type FVIIa (human) [1] = target: wild-type FVIIa (human)
[2] = target: V158D/Q286R/E296V/M298Q/H373F-FVIIa (human)
[3] = target: {Gla swap FIX/K43I}/T128N/P129A/Q286R/M298Q/Q366N-FVIIa (human)
[4] = target: M298Q/Q366N/H373F-FVIIa (human)
[5] = target: T239I/M298Q/H373F-FVIIa (human)
[6] = target: T128N/P129A/Q286R-FVIIa (human)
[7] = target: T239V/M298Q/H373F-FVIIa (human)
[8] = target: T128N/P129A/M298Q-FVIIa (human)
[9] = target: Gla swap FIX/A122N/G124S/A175S/S222A/Q286R-FVIIa (human)
[10] = target: T239V/Q286R/H373F-FVIIa (human)
wild-type FVIIa (human) [11] = target: wild-type FVIIa (human); remark: listed apart in the source
[12] = target: A122N/G124S/A175S-FVIIa (human)
[13] = target: T128N/P129A/A175S/S222A/H257A/Q286R/M298Q-FVIIa (human)
[14] = target: T239I/Q286R-FVIIa (human)
[15] = target: A122N/G124S/A175S/Q286R/M298Q-FVIIa (human)
[16] = target: A122N/G124S/A175S/S222A/H257A/Q286R/M298Q-FVIIa (human)
[17] = target: T239V/Q286R-FVIIa (human)
[18] = target: T128N/P129A/T239V/Q286R/M298Q/H373F-FVIIa (human)
[19] = target: T128N/P129A/S222A/H257A/Q286R/M298Q-FVIIa (human)
[20] = target: Gla swap FIX/T239V/Q286R/M298Q-FVIIa (human)
[21] = target: Gla swapFIX/Q366V-FVIIa (human)
[22] = target: A122N/G124S-FVIIa (human)
[23] = target: {Gla swap FIX/M19K/E40L/K43I/Q44S}/Q286R/M298Q-FVIIa (human)
[24] = target: T128N/P129A/Q286R/M298Q/Q366N-FVIIa (human)
[25] = target: S52A/S60A/Q286R-FVIIa (human)
[26] = target: T128N/P129A/S222A/T239V/H257A/Q286R/M298Q-FVIIa (human)
[27] = target: T239V/Q286R/M298Q-FVIIa (human)
[28] = target: S222A/H257A/Q286R/M298Q-FVIIa (human)
[29] = target: A122N/G124S/A175S/Q286R/M298Q/H373F-FVIIa (human)
[30] = target: V158D/Q286R/E296V/M298Q-FVIIa (human)
wild-type FVIIa (human) [31] = target: wild-type FVIIa (human); remark: listed apart in the source

Chain of antithrombin III (P01008 33-464): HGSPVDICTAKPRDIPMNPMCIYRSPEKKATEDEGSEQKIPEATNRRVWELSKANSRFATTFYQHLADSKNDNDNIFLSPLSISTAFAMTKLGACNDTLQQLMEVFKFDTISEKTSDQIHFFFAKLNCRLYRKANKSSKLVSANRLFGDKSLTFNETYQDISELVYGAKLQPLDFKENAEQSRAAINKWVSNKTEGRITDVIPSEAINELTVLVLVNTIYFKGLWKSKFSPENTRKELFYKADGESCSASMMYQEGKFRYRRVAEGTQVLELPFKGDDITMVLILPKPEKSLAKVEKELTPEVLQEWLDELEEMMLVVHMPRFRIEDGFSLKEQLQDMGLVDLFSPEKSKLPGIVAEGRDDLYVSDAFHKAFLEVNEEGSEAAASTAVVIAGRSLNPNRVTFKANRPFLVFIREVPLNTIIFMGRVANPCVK

- K0.5, TF-independent, FVIIa from 293-F cells (wild-type FVIIa (human) [1]): 2260 nM
- K0.5 mut/K0.5 wt, TF-independent, 293-F cells (wild-type FVIIa (human) [1]): 1
- K0.5 mut/K0.5 wt, TF-independent, BHK-21 cells (wild-type FVIIa (human) [1]): 1
- K0.5 [2]: 62.1 nM
- K0.5 [3]: 319 nM
- K0.5 [4]: 90.8 nM
- K0.5 [5]: 179 nM
- K0.5 [6]: 1650 nM and 1740 nM
- K0.5 [7]: 46.6 nM
- K0.5 [8]: 144 nM
- K0.5 [9]: 5.52 µM
- K0.5 [10]: 631 nM
- K0.5 (wild-type FVIIa (human) [11]): 394 nM and 503 nM
- K0.5 [12]: 1350 nM
- K0.5 [13]: 3.21 µM
- K0.5 [14]: 5.82 µM
- K0.5 [15]: 1950 nM
- K0.5 [16]: 2970 nM
- K0.5 [17]: 1790 nM
- K0.5 (Q286R-FVIIa (human)): 1090 nM
- K0.5 [18]: 121 nM
- K0.5 (S52A/S60A-FVIIa (human)): 361 nM
- K0.5 [19]: 653 nM and 328 nM
- K0.5 [20]: 484 nM and 314 nM
- K0.5 [21]: 108 nM
- K0.5 [22]: 372 nM
- K0.5 [23]: 339 nM
- K0.5 [24]: 346 nM
- K0.5 (K109N-FVIIa (human)): 330 nM
- K0.5 [25]: 1320 nM
- K0.5 [26]: 326 nM
- K0.5 [27]: 3.63 µM
- K0.5 [28]: 314 nM
- K0.5 [29]: 1000 nM
- K0.5 [30]: 85 nM
- K0.5, TF-dependent, FVIIa from 293-F cells (wild-type FVIIa (human) [31]): 72.3 nM
- K0.5, TF-dependent, FVIIa from BHK-21 cells (wild-type FVIIa (human) [31]): 56 nM
- K0.5 mut/K0.5 wt, TF-dependent, 293-F cells (wild-type FVIIa (human) [31]): 1
- K0.5 mut/K0.5 wt, TF-dependent, BHK-21 cells (wild-type FVIIa (human) [31]): 1
Substance: antithrombin III
